From article PMC11172107 come the findings set out here.

For the data set, the target named is T1, ArgR-His6 (Vibrio fluvialis 85003) (UniProt A0AAX2LJS0).
T1 sequence: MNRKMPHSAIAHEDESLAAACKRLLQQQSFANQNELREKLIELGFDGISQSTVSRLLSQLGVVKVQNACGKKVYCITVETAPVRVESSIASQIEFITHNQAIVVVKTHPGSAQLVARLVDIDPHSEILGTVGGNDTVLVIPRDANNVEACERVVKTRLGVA
As to the kind of experiment: EMSA. As to conditions: EMSA: 20 mM Tris/HCl pH 7.6, 50 mM KCl, 1 mM EDTA, 5% glycerol, 200 ng BSA, 500 ng dI-dC, 15 ng probe, 30 C 20 min; footprinting: 5.40 uM ArgR-His6, 40 uL …. In general terms: A gel shift assay detects complexes by their altered migration in electrophoresis.

For “CCGCAGGCTCTTTAGAATTTCTTTAACGATGAAGTGAAATTCACTTTATCACCATGAATAACAATAAAAGTTTTCACCATATTTATTACAAGTCCTAAGCTTTATTCCACGAAATACGTTGCCATATTGAATAGTATTGCAATAAACGTTTTCTAAATGAGTGAATTGAGGTGTGGG (double strand) [arcD2 probe]”, the binding entry was “binds”.
